Measurements from publication PMC4928587 (Molecular cancer research : MCR, 2009).

Target: GST/BRCA1-1293–1863 (human, UniProt P38398 1293-1863)
Assay: pull-down

Sequence of GST/BRCA1-1293–1863 (P38398 1293-1863): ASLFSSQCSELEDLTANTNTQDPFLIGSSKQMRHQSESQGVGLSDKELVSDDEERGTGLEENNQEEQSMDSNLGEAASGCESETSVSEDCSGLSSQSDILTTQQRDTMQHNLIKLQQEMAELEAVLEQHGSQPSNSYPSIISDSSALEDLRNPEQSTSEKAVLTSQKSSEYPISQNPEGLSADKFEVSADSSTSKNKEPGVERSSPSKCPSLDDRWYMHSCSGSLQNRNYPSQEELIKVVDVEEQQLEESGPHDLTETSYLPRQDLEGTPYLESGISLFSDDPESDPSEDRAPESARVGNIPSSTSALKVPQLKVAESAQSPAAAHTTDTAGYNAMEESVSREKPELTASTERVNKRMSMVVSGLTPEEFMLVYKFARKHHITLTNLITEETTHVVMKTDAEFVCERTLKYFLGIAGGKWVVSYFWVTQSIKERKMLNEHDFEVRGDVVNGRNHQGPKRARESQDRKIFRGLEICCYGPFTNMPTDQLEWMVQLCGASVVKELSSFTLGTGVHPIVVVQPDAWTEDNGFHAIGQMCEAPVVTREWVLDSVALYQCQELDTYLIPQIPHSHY

- binding result: binds
B1: MBP/PALB2-1–70 (domain or fragment, human, UniProt Q86YC2 1-70, looked up)
chain: MDEPPGKPLSCEEKEKLKEKLAFLKREYSKTLARLQRAQRAEKIKHSIKKTVEEQDCLSQQDLSPQLKHS
